This is an account of results in publication PMC7156388.

The test system of data set [1] is His228 (position 228, SCDKTHTCPPC).
The test system of data set [2] is His272 (position 272, VVDVSHEDPEV).
Data set [3] has as its system His289 (position 289, DGVEVHNAKTK).
The test system of data set [4] is His57 (position 57, TWNSGHIDYAD).

For “Adalimumab (therapeutic monoclonal IgG1 kappa antibody, anti-TNF) (Homo sapiens (recombinant fully human antibody))”, the pKa in data set [1] stood at 6.4; in data set [2], 7.0; in data set [3], 6.2; in data set [4] it was 6.9.

Usually pKa stands for the pH at which an ionisable group is half protonated. A low value points to a stronger acid or weaker base.
